Results as given in article PMC6783867 (2019).

B2: 10th and 11th cadherin repeat domains of the Plutella xylostella cadherin (PxCR10–11), GST-tagged (domain or fragment)
chain: QAVDLKNEGCTADAGDCYSVYYRIVSDISESFKVDAEKNIISLTRELDRADGVRHIVTVAASNQPDATDNPTNVLTVTVFVREANPRPIFENEVYTAGISTMDSINRELFTVKATRTENLSIKYTIDPSSMVADTSLQSVQGSAFELDADSGVLTLKIKPTASMRGMFEFEVIATDTEQATDRAEVKVYIVSDNNRVSFLFQNQLTQVEQYRDFIAQTLSAGFKMACNIDEVIPSTDAGGSPVEGVTEVRAHFIRDNQPVTADVIEALRSDVELLTNIQRTLNTNLLVLTDFVTDISPSVTADAARVIIYLLGALSAALALALACLVLLAAYWFRTRALNRRLEA

Assays:
[1] = target: B2; assay: BLI
[2] = target: Cry2Ab–AVM bioconjugate (Cry2Ab30 conjugated with 4''-O-succinyl avermectin) (Bacillus thuringiensis, 4''-O-succinyl avermectin joined by an amide bond to amino groups of Cry2Ab30; sites and number not determined (Lys 232 named as potential site from a homology model)); assay: BLI

B1: Bacillus thuringiensis insecticidal protein (Bt toxin) Cry2Ab30 (natural protein)
chain: MNSVLNSGRTTICDAYNVAAHDPFSFQHKSLDTVQKEWTEWKKNNHSLYLDPIVGTVASFLLKKVGSLVGKRILSELRNLIFPSGSTNLMQDILRETEKFLNQRLNTDTLARVNAELTGLQANVEEFNRQVDNFLNPNRNAVPLSITSSVNTMQQLFLNRLPQFQMQGYQLLLLPLFAQAANLHLSFIRDVILNADEWGISAATLRTYRDYLKNYTRDYSNYCINTYQSAFKGLNTRLHDMLEFRTYMFLNVFEYVSIWSLFKYQSLLVSSGANLYASGSGPQQTQSFTSQDWPFLYSLFQVNSNYVLNGFSGARLSNTFPNIVGLPGSTTTHALLAARVNYSGGISSGDIGASPFNQNFNCSTFLPPLLTPFVRSWLDSGSDREGVATVTNWQTESFETTLGLRSGAFTARGNSNYFPDYFIRNISGVPLVVRNEDLRRPLHYNEIRNIASPSGTPGGARAYMVSVHNRKNNIHAVHENGSMIHLAPNDYTGFTISPIHATQVNNQTRTFISEKFGNQGDSLRFEQNNTTARYTLRGNGNSYNLYLRVSSIGNSTIRVTINGRVYTATNVNTTTNNDGVNDNGARFSDINIGNVVASSNSDVPLDINVTLNSGTQFDLMNIMLVPTNISPLY
- koff [1]: 0.000567 s⁻¹

Binder: B2
- koff [2]: 0.000569 s⁻¹
